Series [1] concerns the target HA-tagged AKT deletion construct lacking the PH domain, P31749.
Series [2] concerns the target HA-tagged AKT Y176F mutant, P31749.
The target of series [3] is HA-tagged AKT (wild type), P31749.

Consider three proteins from patent publication US20120053225.

B1: activated Ack1 (caAck, L487F mutant) (protein)
chain: MQPEEGTGWLLELLSEVQLQQYFLRLRDDLNVTRLSHFEYVKNEDLEKIGMGRPGQRRLWEAVKRRKALCKRKSWMSKVFSGKRLEAEFPPHHSQSTFRKTSPAPGGPAGEGPLQSLTCLIGEKDLRLLEKLGDGSFGVVRRGEWDAPSGKTVSVAVKCLKPDVLSQPEAMDDFIREVNAMHSLDHRNLIRLYGVVLTPPMKMVTELAPLGSLLDRLRKHQGHFLLGTLSRYAVQVAEGMGYLESKRFIHRDLAARNLLLATRDLVKIGDFGLMRALPQNDDHYVMQEHRKVPFAWCAPESLKTRTFSHASDTWMFGVTLWEMFTYGQEPWIGLNGSQILHKIDKEGERLPRPEDCPQDIYNVMVQCWAHKPEDRPTFVALRDFLLEAQPTDMRALQDFEEPDKLHIQMNDVITVIEGRAENYWWRGQNTRTLCVGPFPRNVVTSVAGLSAQDISQPLQNSFIHTGHGDSDPRHCWGFPDRIDELYFGNPMDPPDLLSVELSTSRPPQHLGGVKKPTYDPVSEDQDPLSSDFKRLGLRKPGLPRGLWLAKPSARVPGTKASRGSGAEVTLIDFGEEPVVPALRPCAPSLAQLAMDACSLLDETPPQSPTRALPRPLHPTPVVDWDARPLPPPPAYDDVAQDEDDFEICSINSTLVGAGVPAGPSQGQTNYAFVPEQARPPPPLEDNLFLPPQGGGKPPSSAQTAEIFQALQQECMRQLQAPAGSPAPSPSPGGDDKPQVPPRVPIPPRPTRPHVQLSPAPPGEEETSQWPGPASPPRVPPREPLSPQ
As to B1, the “Tyr-phosphorylation of AKT deletion constructs (IP with HA antibodies, immunoblot with pTyr antibodies)” value in series [1] is “AKT deletion construct lacking the PH domain (ΔPH-AKT) exhibited significant decrease in Tyr-phosphorylation”.

B2: endogenous Ack1 of mouse embryo fibroblasts (protein)
chain: MQPEEGTGWLLELLSEVQLQQYFLRLRDDLNITRLSHFEYVKNEDLEKIGMGRPGQRRLWEAVKRRKAMCKRKSWMSKVFSGKRLEAEFPSQHSQSTFRKPSPTPGSLPGEGTLQSLTCLIGEKDLRLLEKLGDGSFGVVRRGEWDAPAGKTVSVAVKCLKPDVLSQPEAMDDFIREVNAMHSLDHRNLIRLYGVVLTLPMKMVTELAPLGSLLDRLRKHQGHFLLGTLSRYAVQVAEGMAYLESKRFIHRDLAARNLLLATRDLVKIGDFGLMRALPQNDDHYVMQEHRKVPFAWCAPESLKTRTFSHASDTWMFGVTLWEMFTYGQEPWIGLNGSQILHKIDKEGERLPRPEDCPQDIYNVMVQCWAHKPEDRPTFVALRDFLLEAQPTDMRALQDFEEPDKLHIQMNDVITVIEGRAENYWWRGQNTRTLCVGPFPRNVVTSVAGLSAQDISQPLQNSFIHTGHGDSDPRHCWGFPDRIDELYLGNPMDPPDLLSVELSTSRPTQHLGRVKREPPPRPPQPAIFTQKTTYDPVSEDPDPLSSDFKRLGLRKPALPRGLWLAKPSARVPGTKADRSSGGEVTLIDFGEEPVVPTPRPCAPSLAQLAMDACSLLDKTPPQSPTRALPRPLHPTPVVDWDARPLPPPPAYDDVAQDEDDFEVCSINSTLVGAGLPAGPSQGETNYAFVPEQAQMPPALEDNLFLPPQGGGKPPSSVQTAEIFQALQQECMRQLQVPTGQLTPSPTPGGDDKPQVPPRVPIPPRPTRPRVELSPAPSGEEETSRWPGPASPPRVPPREPLSPQGSRTPSPLVPPGSSPLPHRLSSSPGKTMPTTQSFASDPKYATPQVIQAPGPRAGPCILPIVRDGRKVSSTHYYLLPERPPYLERYQRFLREAQSPEEPAALPVPPLLPPPSTPAPAAPTATVRPMPQAAPDPKANFSTNNSNPGARPPSLRAAARLPQRGCPGDGQEAARPADKVQMLQAMVHGVTTEECQAALQSHSWSVQRAAQYLKVEQLFGLGLRPRVECHKVLEMFDWNLEQAGCHLLGSCGPAHHKR
As to B2, in series [2], the “AKT Tyr/Ser-phosphorylations (IP and immunoblot)” value is “decreased AKT Tyr/Ser-phosphorylations”.

B3: purified tagged Ack1 expressed in HEK293T cells (protein)
chain: MQPEEGTGWLLELLSEVQLQQYFLRLRDDLNVTRLSHFEYVKNEDLEKIGMGRPGQRRLWEAVKRRKALCKRKSWMSKVFSGKRLEAEFPPHHSQSTFRKTSPAPGGPAGEGPLQSLTCLIGEKDLRLLEKLGDGSFGVVRRGEWDAPSGKTVSVAVKCLKPDVLSQPEAMDDFIREVNAMHSLDHRNLIRLYGVVLTPPMKMVTELAPLGSLLDRLRKHQGHFLLGTLSRYAVQVAEGMGYLESKRFIHRDLAARNLLLATRDLVKIGDFGLMRALPQNDDHYVMQEHRKVPFAWCAPESLKTRTFSHASDTWMFGVTLWEMFTYGQEPWIGLNGSQILHKIDKEGERLPRPEDCPQDIYNVMVQCWAHKPEDRPTFVALRDFLLEAQPTDMRALQDFEEPDKLHIQMNDVITVIEGRAENYWWRGQNTRTLCVGPFPRNVVTSVAGLSAQDISQPLQNSFIHTGHGDSDPRHCWGFPDRIDELYLGNPMDPPDLLSVELSTSRPPQHLGGVKKPTYDPVSEDQDPLSSDFKRLGLRKPGLPRGLWLAKPSARVPGTKASRGSGAEVTLIDFGEEPVVPALRPCAPSLAQLAMDACSLLDETPPQSPTRALPRPLHPTPVVDWDARPLPPPPAYDDVAQDEDDFEICSINSTLVGAGVPAGPSQGQTNYAFVPEQARPPPPLEDNLFLPPQGGGKPPSSAQTAEIFQALQQECMRQLQAPAGSPAPSPSPGGDDKPQVPPRVPIPPRPTRPHVQLSPAPPGEEETSQWPGPASPPRVPPREPLSPQGSRTPSPLVPPGSSPLPPRLSSSPGKTMPTTQSFASDPKYATPQVIQAPGPRAGPCILPIVRDGKKVSSTHYYLLPERPSYLERYQRFLREAQSPEEPTPLPVPLLLPPPSTPAPAAPTATVRPMPQAALDPKANFSTNNSNPGARPPPPRATARLPQRGCPGDGPEAGRPADKIQMAMVHGVTTEECQAALQCHGWSVQRAAQYLKVEQLFGLGLRPRGECHKVLEMFDWNLEQAGCHLLGSWGPAHHKR
In the case of B3, the “AKT Tyr176-phosphorylation (in vitro phosphorylation of purified AKT by Ack1, immunoblot)” value in series [3] is “purified Ack1 interacted directly with AKT resulting in AKT Tyr176-phosphorylation”.
